Measurements taken from the Human Domainome abundance scans (Beltran et al. 2025).

B1: Cyclin-F, residues 28 to 80; numbered along this chain, P41002 (parent)
chain: RNLTILSLPEDVLFHILKWLSVEDILAVRAVHSQLKDLVDNHASVWACASFQE

Variants of: B1
Assay: abundance fitness (aPCA) (normalised: wild type 0, dead -1); higher = more abundant; growth selection in yeast, the domain comes from the species named
Details: Homo sapiens

Abundance fitness, by site and new letter:
S7: K -0.109
V12: M -0.924, P -0.733, W -0.851, R -0.909, H -0.732, K -1.07, I 0.033, D -0.816, C -0.343, G -0.764, F -1.02, A -0.816, S -0.85, N -1.02, T -0.493, L -0.281, Q -0.747, Y -0.846
F14: P -0.954, W 0.347, T 0.061, Y -0.153, E -0.074, Q -0.08, M 0.181, C -0.162, S -0.158, R 0.056, V 0.198, H -0.324, D -0.762, L 0.179, G -0.293, K 0.226, A 0.132
E10: K 0.24, M -0.558, T -0.35, D -0.225, C -0.585, V -0.524, R -0.054, Y -0.505, F -0.449, W -0.737, H -0.166, G -0.566, I -0.576, S -0.233, P -0.357, L -0.646, N -0.589, A -0.208
D11: Q -0.049, H -0.384, K 0.269, A 0.028, M -0.488, E -0.153, P -0.132, R -0.099, C -0.18, I -0.43, G -0.104, F -0.823, S 0.093, V -0.269, N 0.046, W -0.731, Y -0.556
R1: A -1.04, S 0.016, T -0.058, L -0.305, C -0.246, M -0.359, G -0.193, V -0.465, W -0.914, I 0.032, N 0.134, K 0.091
L13: M -0.138, V -0.141, Q -0.093, D -0.644, Y -0.306, T -0.001, W -0.204, S -0.67, G -0.692, C -0.933, K -0.431, R -0.633, E -0.81, F 0.091
H15: I -0.21, F -0.499, E -0.222, L -0.204, K 0.216, A -0.279, M -0.116, D -0.408, C -0.091
N2: H -0.065, P -0.185, R -0.078, E -0.348, V -0.089, W -0.871, D -0.306, S -0.129, I -0.618, C -0.357, K -0.182, T -0.168, Q -0.331, A -0.492, F -0.407, Y -0.366
L6: A -0.898, T -0.486, C -0.695, E -0.889, S -0.885, H -0.691, W -0.678, N -0.691, D -0.593, P -0.674, V -0.665, R -0.83, Y -0.423, K -0.806, M -0.486, Q -0.427, F -0.356
L8: M -0.407, K -0.744, Q -0.925, A -0.509, C -0.993, T -0.651, N -0.755, G -0.939, V -0.915, S -0.635, R -0.833
I5: F -0.254, L 0.12, T -0.697, W -0.615, V -0.243, M -0.254, Y -0.544, S -1.04, H -0.771, C -0.692, G -0.78, K -0.758, A -0.657, P -0.559, E -0.679, D -0.868, N -0.907
